{
  "source": "the DeepSol protein solubility set",
  "test": "soluble on expression in E. coli; label from the status in PepcDB or PDB records",
  "data": [
    {"sequence": "MTQGKGTREGGVLADVSALGPGGHAVVVGGGLAGVTTALALADAGVRVTLLEGRPRLGGLAFSFQRGDLTVDNGQHVYLRCCTAYRWFLDRIGGAALAPVQERLDVPVVDLARTEGNRLGRLRRDALPVPLHLGRSLATYPHLSLAERASVGRAALALKGLDLADPSLDTQDFGSWLTAHGQSARAVEALWDLVGVATLNAVAGDASLGLAAMVFKTGLLSDPGAADIGWARVPLGELHDRLARKALDSAGVRTEVRTRVTSVSVNENGGWSVQVPGETLEADAVVLAVPQREAHDLLPDGALDAPENLLRIGTAPILNIHVIYDRKVLGTPFLTALGTPVQWVFDRTEASGLKEGQYLALSQSTAQNDIDEPVAVLRERYLPELERLLPRTRGAEVKDFFVTRERTATFAPAPGVGRLRPGARTKAPGLYLAGAWTATGWPATMESAVRSGVGAAAAALGALGRSRGLLPDFFEEAALEHHHHHH", "values": [
      {"measurement": "soluble on expression in E. coli", "result": "not soluble"}
    ]},
    {"sequence": "MKLSESRGETEKHRRQQHFEHELKNMISSLTHMGGDKAGPSQYDEEEDGIRVITLSGSNLGATMKTELDNNHGDRDQNGDHELDFLSTYVNSNFQAVNNSIMIGAKYETHDPGVHLDISGDVEKPSVKIPARSSRGKKGKTPARSDRRESEHTN", "values": [
      {"measurement": "soluble on expression in E. coli", "result": "soluble"}
    ]},
    {"sequence": "MTLSIAHLGPPGTYAEQAAVLYVNWLTKSTGDEATLSPYPTISQSLHAVADGQAHLAVVPVENSIEGSVTTTLDALWQLDSLRIQLALVLPIVHTLISCASGLDKIETVYSHPQALAQCQGWLERFLPTVQIVPSNSTTEALQRLEQETTTAAIASSRAAQLYNLPILATGINDYPENCTRFWVVSQGEADAGYQTSKVPTSHTSLAFSMPANTPGALVKPLQIFAQLGINLSRIESRPTKRSLGEYLFFMDLEADVKESQMQSALAELTIHTEILKILGAYNVLPIGAFT", "values": [
      {"measurement": "soluble on expression in E. coli", "result": "not soluble"}
    ]},
    {"sequence": "MGSDKIHHHHHHMMIDTPAVLIDRERLTANISRMAAHAGAHEIALRPHVKTHKIIEIAQMQVDAGARGITCATIGEAEIFAGAGFTDIFIAYPLYLTDHAVQRLNAIPGEISIGVDSVEMAQATAGLREDIKALIEVDSGHRRSGVTATASELSQIREALGSRYAGVFTFPGHSYGPGNGEQAAADELQALNNSVQRLAGGLTSGGSSPSAQFTDAIDEMRPGVYVFNDSQQITSGACTEKQVAMTVLSTVVSRNVSDRRIILDAGSKILSTDKPAWIDGNGFVLGNPEARISALSEHHATIFWPDKVLLPVIGEQLNIVPNHACNVINLVDEVYVREADGTFRTWKVVARGRNN", "values": [
      {"measurement": "soluble on expression in E. coli", "result": "not soluble"}
    ]},
    {"sequence": "MGSSHHHHHHSSGLVPRGSHMQKPIKKDPNRYHGEKMTEFSEWFHNILEEAEIIDQRYPVKGMHVWMPHGFMIRKNTLKILRRILDRDHEEVLFPLLVPEDELAKEAIHVKGFEDEVYWVTHGGLSKLQRKLALRPTSETVMYPMFALWVRSHTDLPMRFYQVVNTFRYETKHTRPLIRVREITTFKEAHTIHATASEAEEQVERAVEIYKEFFNSLGIPYLITRRPPWDKFPGSEYTVAFDTLMPDGKTLQIGTVHNLGQTFARTFEIKFETPEGDHEYVHQTCYGLSDRVIASVIAIHGDESGLCLPPDVAAHQVVIVPIIFKKAAEEVMEACRELRSRLEAAGFRVHLDDRDIRAGRKYYEWEMRGVPLRVEIGPRDLEKGAAVISRRDTGEKVTADLQGIEETLRELMKDILENLRTRAWERMESEIREAETLEEASRIVDEKRGIISFMWCGEEECGMDVEEKVRVDILGIQEEGSGTCINCGREAPYRAYLARTY", "values": [
      {"measurement": "soluble on expression in E. coli", "result": "soluble"}
    ]},
    {"sequence": "MFQRKTLQRRNLKGLNLNLHPDVGNNGQLQEKTETHQGQSRIEGHVMSNINAIQNNSNLFLRRGIKKKLTLDAFGDDQAISKPNTVVIQQPQNEPVLVLSSLSQSPCVSSSSSLSTPCIIDAYSNNFGLSPSSTNSTPSTIQGLSNIATPVENEHSISLPPLEESLSPAAADLKDTLSGTSNGNYIQLQDLVQLGKIGAGNSGTVVKALHVPDSKIVAKKTIPVEQNNSTIINQLVRELSIVKNVKPHENIITFYGAYYNQHINNEIIILMEYSDCGSLDKILSVYKRFVQRGTVSSKKTWFNELTISKIAYGVLNGLDHLYRQYKIIHRDIKPSNVLINSKGQIKLCDFGVSKKLINSIADTFVGTSTYMSPERIQGNVYSIKGDVWSLGLMIIELVTGEFPLGGHNDTPDGILDLLQRIVNEPSPRLPKDRIYSKEMTDFVNRCCIKNERERSSIHELLHHDLIMKYVSPSKDDKFRHWCRKIKSKIKEDKRIKREALDRAKLEKKQSERSTH", "values": [
      {"measurement": "soluble on expression in E. coli", "result": "not soluble"}
    ]},
    {"sequence": "GPGSMAGKGNAKVVVTHPKSRKVRQLQRQSRREKRISEQKGKRNAKAALEAARFFWFREQCLALGRTKLAFSREEAQVLTEQYLKRNDEEIVALKSMRNPTAGRIKILEAMKTSEADDFNSSKGIVIPDITNSDNLEILTSIWDGRADTAGVVRRVGLTRTGVSPAAPAVTELEGKLLTIDEVRERSIDFTSRKARKFQTMKRVQSVKKTPTAEDVWLRSKKRGVDLQAKRLRQGREAVLKTRRAN", "values": [
      {"measurement": "soluble on expression in E. coli", "result": "soluble"}
    ]},
    {"sequence": "MDLSTSGSLPCHLPLSLLTNLQTPPIDTSFSSPPATSSSSLLSPSPSSAFRPVVPKSLMNPQPAMDTFYMSAIQSLVVSTTNDDQYSEHGALEGSKSLAKDENASTSAGTILCQVCSDKASGFHYGVFACEGCKGFFRRSIQQKITYRACTRAEDCLILRNNRNRCQCCRLKKCLAVGMSRDAVRFGRVPKREKARMFEEMQKTNVQSQRDQIAIQYENLTEVMHKINQAFGTLQATLEKCTGPIYTDRCPITSNFIVIPLKAAIDFANSIPAFLSITQTQRVHLLQNSVFDVMLLASASASTSQHFPPGGLTYDQSSANPIIPQAIQSISARIRQLPPQTVPILTAIAVCQADLLPESQQPMLLAERLWCVLGKLGGIQSLATAPSLLADVRTLRQWHSDRLRQMSQISQHFSQNLLIAPVAAAAPVLLPPAFLSPPASATSTSSSSVKSEFIERHPSIASLLERPRRISSSGAQEPLNLSLPHVRHQVKRDVDSDEQLEEMKVSPVPTTLSE", "values": [
      {"measurement": "soluble on expression in E. coli", "result": "not soluble"}
    ]},
    {"sequence": "MGSDKIHHHHHHMKFYEDGNIPEIPNMYFIYGDGGTGKTSLLKQLKGHKFVFSFDMSSNVLIGDKDVDVVIFEHNDAPNIQAMVEECIIRAIQNAKYQVIVLDNVTALQNLVLENIDNAAKDNRQNYQKLQLWFRDLGTILKESGKTIYATAHQLDNGSSGISGEGRFQADMNEKTFNAFTSMFDLVGRIYLAAGERMIDLDPEKGNHAKNRLDDRKLIKANELIQSEKGEK", "values": [
      {"measurement": "soluble on expression in E. coli", "result": "not soluble"}
    ]},
    {"sequence": "MHRDSCPLDCKVYVGNLGNNGNKTELERAFGYYGPLRSVWVARNPPGFAFVEFEDPRDAADAVRELDGRTLCGCRVRVELSNGEKRSRNRGPPPSWGRRPRDDYRRRSPPPRRRSPRRRSFSRSRSRSLSRDRRRERSLSRERNHKPSRSFSRSRSRSRSNERK", "values": [
      {"measurement": "soluble on expression in E. coli", "result": "soluble"}
    ]},
    {"sequence": "MSLKINAILDQSNASAEKVDAYQVQLTNGISEAKNIADEAGKEAVQIATDAGNQANETANQAMNNAKTAIMIAGNAVSTANNNKQEFDTLRNDFDQLVAEAGDSNPEIVQARTDTQGIKQATLANRLQIDLNDRMTKADGISLLAKPTTVKMKLDFNGKTAGNTATNANSYSTDFTAKILKKPTEVWEEVSQADYNKMASRDDEGVKTGSTQSGVIPQQLAAFNLVEAAKKLIPQMFETVTTDEAVAFIRQNVQFFTINQRVKAAAPNNQTIKIATYLPTTDNWVTQIQESAKEFGDFSIQINDQNFITDEGFIYLMSYTDSSNGVTPASLEVDYVGLHIGLSVDAQAVLAKSGFVQAEQLNTHMENQDNPHQVTAEQVGLGNVENYGFASDSEAVAGTLTSKYMHPKNVAEAIKGQAVTQTGDQEIAGVKNFVTMPTVNGVPLESSRMAIYEASGVGEVEAKYQAAFNKDNMKFVLIRVGNRVDAFVRCNLSDPTKLNNNLVKVFTVPTGYTLSTKITKGIWNLALTAMQYTFPQPNCAGLYEMGNQGILFGANRAGNIYLQGSWYTDDPFPTKEGHHHHHH", "values": [
      {"measurement": "soluble on expression in E. coli", "result": "soluble"}
    ]},
    {"sequence": "RLAVGDEITAAGELLAGGKILAIKGIGGFHLAVDASNEAAVRRLRSRKGREEKPFAVMVRDLAAARALCDISPEEKAALASPQAPIVLLRARQGLSLAPSIAPGNDRLGVMLPYSPLHWLLLREGPKVLVMTSANFSEEPLVADNAEALERLAGIADAFLMHDRPIARRCDDSVVMSMAGAVRLIRRSRGYAPAPVRLAES", "values": [
      {"measurement": "soluble on expression in E. coli", "result": "not soluble"}
    ]},
    {"sequence": "MGSDKIHHHHHHMRYDIVIIGGAIVGSSIAYYLREEGFSGSIALIERDPQFAHAATTLSMASIRQQFSIPENIRLSQFTLKLFRRLKETFGTDADIGFREGGYLILAGENGLPVLKANHDAQVAEGADIVLEDAEQLTRRFAWLSAEGISAGAYGRTGEGWFDAHAMLMLFRKALRDKKIDFIAASVTGIARDGDRVTGVSLDNGQTLEAGIVVNAAGPNAGKVAALAGLALPVEPRKRNVFVFEAREKYADMPLLVDPSGIYVRPEGSVYLTGGAEPEEGDGPADPSDFEVDWPLFEEVIWPVLATRIPAFEAIKATRAWAGHYDYNTLDQNAVIGPHPEVGNFIFANGFSGHGLQQAPAVGKALAEFLVHGGYRTIDCSAFGYGRVAEGRAFRELNVI", "values": [
      {"measurement": "soluble on expression in E. coli", "result": "not soluble"}
    ]},
    {"sequence": "MIERLFRLIKPGTRQQMVCFHHAGGSAEYFLPWKTDLPPDTALYAIQLPGHGGRINESLLHNLHQMADVIAQSYVYLPVRDTFFFGHSMGAALAFEVALRLQKAGRGITTLYVSGRLPPHKNTNTDFYRQSDVSILNKITQLGGSTLDYQQPELKDLLLPIFRADFTAIETYQRQCTELLNCSVMACVGEQDTEVSVRQMSEWCQVTKGAFRLQVFPGGHFYLNHAQKRLLAFINQSVAAQQSSKECKEYHDEI", "values": [
      {"measurement": "soluble on expression in E. coli", "result": "not soluble"}
    ]},
    {"sequence": "MGSDKIHHHHHHVDLSVMNRKRSESFNEVAEIYDAARPSYPSQLIEDVIEMANLTDSASILDIGTGTGKGTVPFAEKGYAIYCLEPGERLIAIASQNMRLYPKVIFETVTLEDWNLRPSAFDLAISAQAFHWVNREKGYPKVAQALKEKGYIAFFWNFSILPDTSIFQALKETFQKYVPTISNAKPSSVESLIKKRENWILNSFYFKNLVVKKYPWSINYDAEGYLGLLKTQTAYQKFTGTEKQDFSDAIIQILNAHGGYVTKPYLSVLFFAQKI", "values": [
      {"measurement": "soluble on expression in E. coli", "result": "not soluble"}
    ]},
    {"sequence": "MGSDKIHHHHHHMDVWLQLLQAEPELRSLTDWNRLATRYTDSPKYTARDASGVFIIHTAPLASLARKKREFELLQQLRHDGLPVPEPLDLKQISATAVCYSRYRFLTGKTIQACLPLCRDKAYRLGQETGRLLQWIHQHEVPRATEWAIRCLEKHKRYVALYQAERPLTDDSIILSFIERNIHLIAGRPNRLQHDDVHLGNLITDGEHLVGLIDFSNHDVGDPWHDFVKMGLFQVDDSIPFAVGQVDGYFARDVPELFWRVYSVYLAMACISSIVWTSRHAPEETDQMRRRFECAVPIWYATFDRT", "values": [
      {"measurement": "soluble on expression in E. coli", "result": "not soluble"}
    ]},
    {"sequence": "FSRAIDEHFVELDHMAMSAKLAVFRDELRGLGSEQQMRRREAELLRELARHPDLGLRLNGPDGNLWFERLPQPAHPGLPANRELGAPLEPGNDASPRLTVILDISHHQHFLQRMRQL", "values": [
      {"measurement": "soluble on expression in E. coli", "result": "not soluble"}
    ]},
    {"sequence": "MILAQKQKQVIRLNLISTWRKLISSTKIPNWLSQTKIQSKYQTRGIYPGSFFQKTIFRKDGSMSVQRTLQKYMDDWKRISHFDFCLLQEDNSILVTTCDRRLPAESKLEEFRNSTALCLSNATCCLYKITEKNEQLLLIVWGSEDSVSTIGELAVCQIESILESYAEKNDKNAFMQKLLLGDYTDVEAFNRARKLHISSSARRAVFLVETRQSKDEHALATIKNIFSARTHDFITSIDNRGIIVVRELTSTETYDDLENIAHMLVDMLGTEAMTQAWVAYSNTANDLKDLSNAYKEARTALEIGKIFYAERNVFGYRTLGIGRLLYQLPVSICEMFIQEIFGDESLDSIDGETLAIIRTFFENNLNLSETSRQLYVHRNTLVYRFEKIQKRFGLDLRTFEDAMTFKLAMLVSRYLRYQNRT", "values": [
      {"measurement": "soluble on expression in E. coli", "result": "not soluble"}
    ]}
  ]
}
